Experimental data reported in article doi:10.1101/2024.04.28.591520.

Molecular target: T1, Mycobacterium tuberculosis polyketide synthase 13 (Mycobacterium tuberculosis), I6X8D2
T1 chain: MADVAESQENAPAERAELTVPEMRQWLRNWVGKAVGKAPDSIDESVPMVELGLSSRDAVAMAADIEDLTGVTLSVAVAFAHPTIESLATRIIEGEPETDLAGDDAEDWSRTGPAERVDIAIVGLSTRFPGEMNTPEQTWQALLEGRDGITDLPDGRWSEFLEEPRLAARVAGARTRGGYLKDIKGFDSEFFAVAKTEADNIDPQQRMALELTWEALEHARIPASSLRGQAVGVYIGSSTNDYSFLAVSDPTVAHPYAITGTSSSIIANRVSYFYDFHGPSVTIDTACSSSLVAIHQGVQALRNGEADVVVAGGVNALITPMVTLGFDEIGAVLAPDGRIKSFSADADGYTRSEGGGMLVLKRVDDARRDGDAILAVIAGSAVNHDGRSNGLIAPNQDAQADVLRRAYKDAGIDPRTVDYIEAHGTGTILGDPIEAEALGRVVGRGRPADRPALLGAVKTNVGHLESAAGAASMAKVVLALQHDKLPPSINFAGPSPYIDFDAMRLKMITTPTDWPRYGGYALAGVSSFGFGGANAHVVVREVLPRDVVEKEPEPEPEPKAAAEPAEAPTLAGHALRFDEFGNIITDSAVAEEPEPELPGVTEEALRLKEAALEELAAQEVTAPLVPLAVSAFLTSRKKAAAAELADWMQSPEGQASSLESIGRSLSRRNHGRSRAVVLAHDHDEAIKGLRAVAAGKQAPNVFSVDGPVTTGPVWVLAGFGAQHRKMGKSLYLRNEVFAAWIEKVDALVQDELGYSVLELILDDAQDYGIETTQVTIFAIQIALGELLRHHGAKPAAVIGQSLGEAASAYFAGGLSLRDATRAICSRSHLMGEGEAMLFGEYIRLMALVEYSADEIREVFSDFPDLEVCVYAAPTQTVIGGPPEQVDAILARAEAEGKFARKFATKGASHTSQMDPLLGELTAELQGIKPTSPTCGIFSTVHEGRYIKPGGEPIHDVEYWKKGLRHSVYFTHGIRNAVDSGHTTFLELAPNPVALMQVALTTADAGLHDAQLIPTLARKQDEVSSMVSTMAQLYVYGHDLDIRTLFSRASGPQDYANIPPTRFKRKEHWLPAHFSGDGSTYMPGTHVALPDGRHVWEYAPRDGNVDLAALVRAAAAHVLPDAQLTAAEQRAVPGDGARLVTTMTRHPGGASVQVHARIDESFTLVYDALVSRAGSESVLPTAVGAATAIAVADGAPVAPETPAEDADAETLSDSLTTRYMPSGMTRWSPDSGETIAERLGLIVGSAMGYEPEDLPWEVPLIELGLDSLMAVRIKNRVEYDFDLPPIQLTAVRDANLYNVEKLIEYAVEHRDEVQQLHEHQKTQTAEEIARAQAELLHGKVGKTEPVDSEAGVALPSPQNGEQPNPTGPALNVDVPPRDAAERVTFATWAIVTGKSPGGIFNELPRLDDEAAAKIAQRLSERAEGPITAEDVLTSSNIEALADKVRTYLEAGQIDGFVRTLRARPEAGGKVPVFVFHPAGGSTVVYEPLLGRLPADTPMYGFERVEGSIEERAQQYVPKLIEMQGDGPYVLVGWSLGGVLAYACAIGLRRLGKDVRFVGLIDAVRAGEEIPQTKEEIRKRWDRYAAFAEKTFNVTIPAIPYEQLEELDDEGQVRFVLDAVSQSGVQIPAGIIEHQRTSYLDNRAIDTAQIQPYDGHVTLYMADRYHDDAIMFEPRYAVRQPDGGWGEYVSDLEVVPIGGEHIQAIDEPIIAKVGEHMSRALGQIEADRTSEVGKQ
Assay: AUC
Settings: remark: other sources report otherwise

B1: Mycobacterium tuberculosis polyketide synthase 13, I6X8D2 1-1733 (enzyme)
chain: T1 chain
stoichiometry N: 2
